Results on two substances are retold here after patent US20110312522A1, “METHODS OF DETECTION OF CANCER USING PEPTIDE PROFILES” (Sloan-Kettering Institute for Cancer Research, priority 2005, published 2011).

Ends that are not written are not given here.

Data set [1] in a line: Degradation of synthetic peptides added to fresh plasma, MALDI-TOF MS read-out. In kind it is in vitro ADME, human. As for the experimental part:
In an effort to begin to understand the presence and roles of exoproteases, synthetic C3f was added to fresh plasma at a concentration close to that observed in serum. […] The resulting pattern was similar to the endogenous one observed in serum and also illustrated the disparate ion intensities for different rungs in the ladder.

The nature of data set [2]: Degradation of synthetic peptides in control serum and plasma (MALDI-TOF MS-based protease assay). It is filed as in vitro ADME, human. The text has this:
A large part of the human serum ‘peptidome’, as detected by MALDI-TOF MS, is generated ex vivo (i.e., after blood collection) by protease degradation of blood proteins. Endoproteases produce ‘founder peptides’ which are then pared down by exoproteases into ladder-like clusters. Panels of proteolytic activity in the blood contribute important cancer type-specific information, and that the resulting metabolic patterns have utility as surrogate markers for detection and classification of cancer. Degradation occurs during clotting. The use of exogenous synthetic peptides, identical to previously observed founder peptides, can be used to monitor cancer-specific proteolytic degradation in plasma or serum that contains proteases. Conditions in terms of time, temperature and added amounts of substrates can hereby be readily controlled. Coupled to a MALDI-based read-out, such analyses are blood “protease assays” to monitor the tumor-dependent activities inferred from prior studies. Simultaneous addition of non-degradable, exogenous reference peptides also enables relative quantitation of all rungs in the ladders.
The degradation conditions and times were studied for C3f and FPA in serum and plasma as described above. […] 2 picomoles [^13C-Leu]-labeled C3f was incubated for 30 min at RT with […] aliquots of serum from 20 different breast cancer patients and 20 control samples. […]

As for “FPA: synthetic fibrinopeptide A, N-terminally cleaved from fibrinogen by thrombin (ADSGEGDFLAEGGGVR; Fibrinopeptide A; UniProt P02671 20-35, looked up)”, in data set [1], the “exoproteolytic degradation in plasma (in words)” value was “followed a similar time course”. In addition, in data set [2], the “degradation in control serum and plasma (in words)” value is “readily degraded”; the degradation time entry is given as “up to 4 hours”.

Regarding “FPB: fibrinopeptide B, added to plasma like synthetic FPA (QGVNDNEEGFFSAR; ends and bridges not checked; UniProt P02675 31-44, looked up)”, the “exoproteolytic degradation in plasma (in words)” value in data set [1] was “completely degraded in just a few minutes”.
